Data from patent publication US20250320279A1, “UNGULATE-DERIVED POLYCLONAL IMMUNOGLOBULIN SPECIFIC FOR INFLUENZA VIRUS AND USES THEREOF” (priority 2021, published 2025).

How the values were obtained:
Experiment in all cases: cell-based or functional assay
[1] = biological target: hemagglutinin (HA) of influenza B/California/12/2015 B-Yam (Influenza B virus B/California/12/2015)
[2] = biological target: hemagglutinin (HA) of influenza A/Victoria/2570/2019 (2021-22) H1N1 (Influenza A virus A/Victoria/2570/2019 (H1N1))
[3] = biological target: hemagglutinin (HA) of influenza A/Michigan/45/2015 pH1N1 (Influenza A virus A/Michigan/45/2015 (pH1N1))
[4] = biological target: hemagglutinin (HA) of influenza A/California/4/2009 pH1N1 (Influenza A virus A/California/4/2009 (pH1N1))
[5] = biological target: hemagglutinin (HA) of influenza A/Cambodia/e0826360/2020 (2021-22) H3N2 (Influenza A virus A/Cambodia/e0826360/2020 (H3N2))
[6] = biological target: hemagglutinin (HA) of influenza B/Colorado/06/2017 B-Vic (Influenza B virus B/Colorado/06/2017 (B-Vic))
[7] = biological target: hemagglutinin (HA) of influenza A/Kansas/14/2017 H3N2 (Influenza A virus A/Kansas/14/2017 (H3N2))
[8] = biological target: hemagglutinin (HA) of influenza B/Phuket/3073/2013 B-Yam (Influenza B virus B/Phuket/3073/2013 (B-Yam))
[9] = biological target: hemagglutinin (HA) of influenza A/Brisbane/02/2018 H1N1 (Influenza A virus A/Brisbane/02/2018 (H1N1))
[10] = biological target: hemagglutinin (HA) of influenza A/Guangdong-maonan/2019 (Cell) H1N1 (Influenza A virus A/Guangdong-maonan/2019 (H1N1), (Cell))
[11] = biological target: hemagglutinin (HA) of influenza A/Hong Kong/2671/2019 (Egg) H3N2 (Influenza A virus A/Hong Kong/2671/2019 (H3N2), (Egg))
[12] = biological target: hemagglutinin (HA) of influenza A/Guangdong-maonan/2019 (Egg) H1N1 (Influenza A virus A/Guangdong-maonan/2019 (H1N1), (Egg))
[13] = biological target: hemagglutinin (HA) of influenza A/Singapore/INFIMH-16-0019/2016 H3N2 (Influenza A virus A/Singapore/INFIMH-16-0019/2016 (H3N2))
[14] = biological target: hemagglutinin (HA) of influenza B/Washington/02/2019 B-Vic (Influenza B virus B/Washington/02/2019)
[15] = biological target: hemagglutinin (HA) of influenza B/Maryland/15/2016 B-Vic (Influenza B virus B/Maryland/15/2016 (B-Vic))
[16] = biological target: hemagglutinin (HA) of influenza A/Hong Kong/4801/2014 H3N2 (Influenza A virus A/Hong Kong/4801/2014 (H3N2))
[17] = biological target: hemagglutinin (HA) of influenza B/Brisbane/60/2008 B-Vic (Influenza B virus B/Brisbane/60/2008 (B-Vic))
[18] = biological target: hemagglutinin (HA) of influenza A/Switzerland/9715293/2013 H3N2 (Influenza A virus A/Switzerland/9715293/2013 (H3N2))

Substance	HAI titer (reciprocal dilution) [1]	HAI titer (reciprocal dilution) [2]	HAI titer (reciprocal dilution) [3]	HAI titer (Huber virus stock) (reciprocal dilution) [4]	HAI titer (hVIVO virus stock) (reciprocal dilution) [4]	HAI titer (reciprocal dilution) [5]	HAI titer (reciprocal dilution) [6]	HAI titer (reciprocal dilution) [7]	HAI titer (reciprocal dilution) [8]	HAI titer (reciprocal dilution) [9]	HAI titer (reciprocal dilution) [10]	HAI titer (reciprocal dilution) [11]	HAI titer (reciprocal dilution) [12]	HAI titer (reciprocal dilution) [13]	HAI titer (reciprocal dilution) [14]	HAI titer (reciprocal dilution) [15]	HAI titer (reciprocal dilution) [4]	HAI titer (reciprocal dilution) [16]	HAI titer (reciprocal dilution) [17]	HAI titer (reciprocal dilution) [18]
SAB-176 Lot 1 V3 (antibody)	128	256	512	512	512	128	256	64	128	512	512	64	512	512	64	256	–	–	–	–
SAB-176 Lot 2 V3-V5 (antibody)	128	256	512	512	1024	256	256	64	256	512	512	128	512	512	128	256	–	–	–	–
SAB-176 Lot 3 V3-V12 (antibody)	128	256	512	512	512	256	256	512	128	512	512	256	512	512	64	128	–	–	–	–
SAB-176 Lot 4 V3-V12 (antibody)	128	256	512	512	512	256	256	256	128	512	512	256	512	512	128	256	–	–	–	–
negative control IgG (antibody)	< 1	< 1	< 1	< 1	< 1	< 1	< 1	< 1	< 1	< 1	< 1	< 1	< 1	< 1	< 1	< 1	< 1	< 1	< 1	< 1
